Target: PARP1 (endogenous, Hela cell lysate) (human) (UniProt P09874)
Assay: scanning densitometry of PARP1 immunoprecipitates from Hela cells (FIG. 4B)

PARP1 (endogenous, Hela cell lysate) (human), sequence (P09874 2-1014 limits assumed): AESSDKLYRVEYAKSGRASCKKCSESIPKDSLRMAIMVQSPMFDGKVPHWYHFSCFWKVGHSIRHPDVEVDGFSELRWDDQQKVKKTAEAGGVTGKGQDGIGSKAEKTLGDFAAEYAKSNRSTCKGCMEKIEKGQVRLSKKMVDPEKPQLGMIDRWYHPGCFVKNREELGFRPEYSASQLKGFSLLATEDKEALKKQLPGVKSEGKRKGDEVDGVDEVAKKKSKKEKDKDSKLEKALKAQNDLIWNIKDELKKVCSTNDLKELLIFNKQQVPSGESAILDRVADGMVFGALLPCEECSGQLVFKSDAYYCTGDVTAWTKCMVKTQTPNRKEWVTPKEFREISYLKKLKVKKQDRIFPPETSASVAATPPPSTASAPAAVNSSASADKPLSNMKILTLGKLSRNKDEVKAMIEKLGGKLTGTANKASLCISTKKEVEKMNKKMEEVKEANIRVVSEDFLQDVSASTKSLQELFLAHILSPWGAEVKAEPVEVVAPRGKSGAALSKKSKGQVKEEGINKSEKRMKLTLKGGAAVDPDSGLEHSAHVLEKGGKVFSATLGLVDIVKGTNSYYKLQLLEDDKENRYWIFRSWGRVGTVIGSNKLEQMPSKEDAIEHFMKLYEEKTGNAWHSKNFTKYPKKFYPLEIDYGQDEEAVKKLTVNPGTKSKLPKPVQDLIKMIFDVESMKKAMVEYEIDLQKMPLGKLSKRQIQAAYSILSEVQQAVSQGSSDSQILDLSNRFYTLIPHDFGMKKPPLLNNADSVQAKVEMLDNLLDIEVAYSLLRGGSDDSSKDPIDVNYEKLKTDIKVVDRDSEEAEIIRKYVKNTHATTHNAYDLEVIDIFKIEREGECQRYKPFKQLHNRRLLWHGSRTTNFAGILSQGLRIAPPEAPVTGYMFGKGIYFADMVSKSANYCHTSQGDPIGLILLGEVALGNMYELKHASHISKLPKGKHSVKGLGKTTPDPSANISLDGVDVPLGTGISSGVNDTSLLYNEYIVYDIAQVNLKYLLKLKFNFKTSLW

- fold increase co-immunoprecipitated with PARP1 (Dox-treated versus untreated cells): 4.8 fold
Substance: BAL1 (endogenous, Hela cell lysate) (from UniProt Q8IXQ6 1-854)
